In patent US20240158785A1 (Chugai, published 2024):

B1: GC413 (antibody, V domains shown)
VH: QVQLVQSGAEVKKPGASVKVSCKASGYTFTDYEMHWIRQPPGQGLEWIGAIDPKTGDTAYSQKFKGRVTLTADKSTSTAYMELSSLTSEDTAVYYCTRFYSYTYWGQGTLVTVSS
VL: DIVMTQSPLSLPVTPGEPASISCRSSQSLVHSNRNTYLHWYQQKPGQAPRLLIYKVSNRFSGVPDRFSGSGSGTDFTLKISRVEAEDVGVYYCSQNTHVPPTFGQGTKLEIK
notes: also called anti-human glypican 3 antibody GC413; negative control
B2: HSADSA1-6_020 (Fab, V domains shown)
VH: EVQLVESGGDLVKPGGGLRLSCAASGFTFSSHTMNWVRQAPGKGLEWVSSISSRSNHATYADSVKGRFTISRDNAKNSLYLQMNSLRAEDTAVYYCARFGKKGRYLWVFDYWGQGTLVTVSS
VL: QSALTQPPSASGSPGQTVTISCTGTSSDVGDYNYVSWYQQHPGKAPKLMIYYVSKRPSGVPDRFSGSKSGNTASLTVSGLQAEDEADYFCSLTTDSLNPVFGGGTKLTVL
notes: also called clone HSADSA1-6_020
B3: 6RAD2C1-4_030 (antibody, human IgG1, lambda, V domains shown)
VH: EVQLVESGGDLVKPGGGLRLSCAASGFTFSSYTMNWVRQAPGKGLEWVSSISSRSGYAYYADSVKGRFTISRDNAKNSLYLQMNSLRAEDTAVYYCARFGALNTLNWVFDYWGQGTLVTVSS
VL: QSALTQPPSASGSPGQTVTISCTGTSTDVGDYNYVSWYQQHPGKAPKLMIYQVSKKPSGVPDRFSGSKSGNTASLTVSGLQAEDEADYFCSTRTANAGVLFGGGTKLTVLG
notes: also called 6RAD2C1-4_30
B4: 6RNMSC1-2_F02 (antibody, human IgG1, V domains shown)
VH: QVQLVQSGAEVKKPGSSVKVSCKASGGTFSSYAISWVRQAPGQGLEWMGGIIPIFGTANYAQKFQGRVTITADESTSTAYMELSSLRSEDTAVYYCARDAPVVARPRGAFDIWGQGTMVTVSS
VL: DIVMTQTPLSSPVTLGQPASISCRSSQSLVHSDGNTYLSWLQQRPGQPPRLLIHEISNRFSGVPDRFSGSGAGTNFTLKISRVEAEDVGVYYCMQATQFPRTFGQGTKVEIK
notes: Variable region genes were inserted into a human IgG1/Kappa expression plasmid; also called clone 6RNMSC1-2_F02; antibody 6RNMSC1-2_F02
B5: 6RAD2C1-4_001 (antibody, human IgG1, lambda, V domains shown)
VH: EVQLVESGGDLVKPGGGLRLSCAASGFTFSGHTMNWVRQAPGKGLEWVSSISSRSNYIYYADSVKGRFTISRDNAKNSLYLQMNSLRAEDTAVYYCARYGRLHDRNWVFDYWGQGTLVTVSS
VL: QSALTQPPSASGSPGQTVTISCTGTSTDVGDYNYVSWYQQHPGKAPKLMIYQVSKKPSGVPDRFSGSKSGNTASLTVSGLQAEDEADYFCSSRSYGAGVVFGGGTKLTVLG
notes: also called 6RAD2C1-4_01
B6: 6RDL3C1-4_085 (antibody, human IgG1, lambda, V domains shown)
VH: EVQLVESGGDLVKPGGGLRLSCAASGFTFSGHTMNWVRQAPGKGLEWVSSISSRSNYIYYADSVKGRFTISRDNAKNSLYLQMNSLRAEDTAVYYCARYGRLHDRNWVFDYWGQGTLVTVSS
VL: QSALTQPPSASGSPGQTVTISCTGTSTDVGDYNYVSWYQQHPGKAPKLMIYQVSKKPSGVPDRFSGSKSGNTASLTVSGLQAEDEADYFCSSRSYGAGVVFGGGTKLTVLG
notes: also called 6RDL3C1-4_85
B7: 6RAD2C1-4_076 (antibody, human IgG1, lambda, V domains shown)
VH: EVQLVESGGDLVKPGGGLRLSCAASGFTFSGYTMNWVRQAPGKGLEWVSSISSRSSYIDYADSVKGRFTISRDNAKNSLYLQMNSLRAEDTAVYYCARYGALGQRNWVFDYWGQGTLVTVSS
VL: QSALTQPPSASGSPGQTVTISCTGTSTDVGDYNYVSWYQQHPGKAPKLMIYQTSKRPSGVPDRFSGSKSGNTASLTVSGLQAEDEADYFCSSRSIKHPVFGGGTKLTVLG
notes: also called 6RAD2C1-4_76
B8: 6RAD2C1-4_011 (antibody, human IgG1, lambda, V domains shown)
VH: EVQLVESGGDLVKPGGGLRLSCAASGFTFSGHTMNWVRQAPGKGLEWVSSISSRSSYIYYADSVKGRFTISRDNAKNSLYLQMNSLRAEDTAVYYCARYGALGQMNWVFDYWGQGTLVTVSS
VL: QSALTQPPSASGSPGQTVTISCTGTSTDVGDYNYVSWYQQHPGKAPKLMIYSVSKRPSGVPDRFSGSKSGNTASLTVSGLQAEDEADYFCSSRSSSMNVLFGGGTKLTVLG
notes: also called 6RAD2C1-4_11
B9: 6RAD2C1-4_026 (antibody, human IgG1, lambda, V domains shown)
VH: EVQLVESGGDLVKPGGGLRLSCAASGFTFSGYTMNWVRQAPGKGLEWVSSISSRSNYAHYADSVKGRFTISRDNAKNSLYLQMNSLRAEDTAVYYCARYGRLGDRNWVFDYWGQGTLVTVSS
VL: QSALTQPPSASGSPGQTVTISCTGTSTDVGAYNYVSWYQQHPGKAPKLMIYKVSKKPSGVPDRFSGSKSGNTASLTVSGLQAEDEADYFCSLRAATTGVLFGGGTKLTVLG
notes: also called 6RAD2C1-4_26
B10: 6RAD2C1-4_005 (antibody, human IgG1, lambda, V domains shown)
VH: EVQLVESGGDLVKPGGGLRLSCAASGFTFSTHTMNWVRQAPGKGLEWVSSISSRSSYIHYADSVKGRFTISRDNAKNSLYLQMNSLRAEDTAVYYCARFGKLGERNWVFDYWGQGTLVTVSS
VL: QSALTQPPSASGSPGQTVTISCTGTSTDVGDYNYVSWYQQHPGKAPKLMIYQVSKKPSGVPDRFSGSKSGNTASLTVSGLQAEDEADYFCSVRSDGHGPMFGGGTKLTVLG
notes: also called 6RAD2C1-4_05

Experiments:
human IL-6 receptor [1] = target: T1, human IL-6 receptor (human, UniProt P08887 20-357, limits assumed, biotin-labeled in the ELISA and Octet assays (position not given)); assay: ELISA: biotin-labeled hIL-6R on a streptavidin plate, purified IgG, absorbance 450 nm; with 1 mM kynurenine, tryptophan, phenylalanine, anthranilic acid, 3-hydroxykynurenine, kynurenic acid, or none (Table 14)
T1 construct: also called hIL-6R; biotin-labeled hIL-6R
T1 sequence: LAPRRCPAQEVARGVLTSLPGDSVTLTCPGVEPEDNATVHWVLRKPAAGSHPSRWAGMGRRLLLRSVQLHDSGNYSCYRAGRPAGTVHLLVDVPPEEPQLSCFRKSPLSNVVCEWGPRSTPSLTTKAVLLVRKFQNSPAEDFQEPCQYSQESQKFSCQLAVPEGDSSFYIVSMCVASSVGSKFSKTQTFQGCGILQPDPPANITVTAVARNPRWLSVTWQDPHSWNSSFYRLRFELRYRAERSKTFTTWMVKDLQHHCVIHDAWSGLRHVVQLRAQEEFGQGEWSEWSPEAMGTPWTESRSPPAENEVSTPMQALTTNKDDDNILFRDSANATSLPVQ

human serum albumin = target: T2, human serum albumin (human, UniProt P02768 25-609, biotin-labeled antigen (position not given)); assay: phage ELISA: biotin-labeled HSA on a streptavidin plate, purified Fab-displaying phage, HRP anti-M13 antibody, absorbance 450 nm; with or without 10 mM ATP and adenosine
T2 construct: also called HSA

human IL-6 receptor [2] = target: T1, human IL-6 receptor; assay: SPR (Biacore T200), hIL-6R amine-coupled on CM5, antibody as analyte, equilibrium values, 1 mM ATP, 25 C; 1 mM ATP; Biacore, hIL-6R on CM5, antibody concentration series, 25 C
Protocol: The running buffer used was 20 mmol/L ACES, 150 mmol/L NaCl, 0.05% (w/v) Tween20, pH 7.4. The assay was performed at 25° C. hIL-6R was immobilized onto Sensor chip CM5 by amine coupling, and interacted with the antibodies as an analyte for 120 seconds to observe changes in the amount of binding. Antibodies were diluted with the running buffer or the running buffer added with any one of ATP, ADP, AMP, cAMP, and adenosine (ADO). The final concentration of each small molecule was adjusted to 1 mM, and the final concentration of the antibody was adjusted to 1 μM. Meanwhile, under the 1 mM ATP condition, the assay was carried out with a series of stepwise antibody concentrations. The dissociation constant KD (mol/L) of each clone for hIL-6R was calculated from a plot of equilibrium values against antibody concentration. The parameters were calculated using the Biacore T200 Evaluation Software (GE Healthcare).

human IL-6 receptor [3] = target: T1, human IL-6 receptor; assay: SPR (Biacore T200), antibody captured on protein A, hIL-6R as analyte, 100 µmol/L kynurenine, 25 C; 100 µmol/L kynurenine; Biacore, antibody captured, hIL-6R as analyte
Protocol: An appropriate amount of protein A (Invitrogen) was immobilized onto Sensor chip CM5 (GE Healthcare) by the amine coupling method. The antibody of interest was captured onto the sensor chip, and the antigen hIL-6R was allowed to interact. […] The interaction with the antigen hIL-6R was measured at 25° C. hIL-6R was diluted with the running buffer, the running buffer containing 100 μmol/L kynurenine, or, as a control, the running buffer containing 10 mmol/L ATP.
Then, the running buffer was run at a flow rate of 10 μL/min for one minute to observe the dissociation of hIL-6R from the antibody. Next, 10 mmol/L glycine-HCl, pH 1.5, was injected at a flow rate of 30 μL/min for 30 seconds to regenerate the sensor chip. […] Each parameter was calculated using Biacore T200 Evaluation Software (GE Healthcare).

Binder | Kd (human IL-6 receptor [2]) [nM] | further results
B1 | – | binding result (human IL-6 receptor [1]): no binding (tested: 2.5 µg/mL)
B2 | – | binding result (human serum albumin): binds
B3 | 330 | –
B4 | – | Kd (human IL-6 receptor [3]): 1500 nM
B5 | 300 | –
B6 | 390 | –
B7 | 250 | –
B8 | 230 | –
B9 | 210 | –
B10 | 340 | –
